Here are results for 30 sequences from the nanobody polyreactivity screen of Harvey et al. (2022).

The data set can be described thus: yeast display, Sf9 membrane polyspecificity reagent, FACS + sequencing; frameworks hold sequencing errors. The method in brief:
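Using colony PCR, genes from sorted yeast display clones were amplified, then sequenced on MiSeq at 2 × 250 and filtered by CDR length. The clones had been stained with 10% biotinylated, detergent-solubilized Sf9 membrane reagent for 1 hour at 4 °C and sorted by FACS into low and high (top ~1%) gates on anti-HA and streptavidin fluorescence. Polyreactivity labels come from the gate of origin.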
Take “QVQLVESGGGLDQAGGSLRLSCAASGSTFVYYAMGWYRQAPGKERELVAAITASGGGTYYADSVKGSFTISRDNAKNTVYLQMNSLKPEDTAVYYCAANDYWYSRGDNQFYYRGQGTQVTVSS”: the “polyreactivity (PSR sort gate)” value is “low polyreactivity”.

Consider “QVQLVESGGGLDQAGGSLRLSCAASGSTFYFYAMGWYRQAPGKEMELVAVISSGGRTYYADSVKGRFTISRDNAKNTVYLQMNSLKPEDTAVYYCAASWPSSLTYYYWGQGTQVTVSS”, for which the “polyreactivity (PSR sort gate)” value was “low polyreactivity”.

For the sequence “QVQLVESGGGLDQAGGSLRLSCAASGSTFYSYDMGWYRQAPGKEREMVAAISSGGSTYYADSVKGRFTISRDNAKNTVYLQMNSLKPEDTEVYYCAAKRRATTGYRYDYWGQGTQGTVSS”, the “polyreactivity (PSR sort gate)” value is listed as “high polyreactivity”.

Regarding “QVQLVESGGGLDQAGGSLRLSCAASVRIFEENAMGWSRQAPGKEREFVAVITSSGGGTYYADSVKGRFTISRDKAKNTVYLQMNSLKPEDTAVYYCARADKLHTRGWGRWGSGSYSWGQGTQVTVSS”, the “polyreactivity (PSR sort gate)” value was “low polyreactivity”.

On to “QVQLVESGGGLDQAGGSLRLSCAATGGTFTRKAMGWYRQAPGKERELVASITSGDTTNYADSVKGRFTISRDNAKNTVYLQMNSLKPEDTAVYYCATDTPTDRYAAYPHDPYYYWGQGTQVTVSS”, for which the “polyreactivity (PSR sort gate)” value was “low polyreactivity”.

For “QVQLVESGGGLDQAGGSLRLSCADSGSLSDWNAMVSYRQAAGKEREWVAAINWSGDTTYYADSVKGRFTISRDNAKNTFYLQMNCLNPEDTAVYYCAAELVVDYDWYDYWGQGTQVTVSS”, the “polyreactivity (PSR sort gate)” value was “high polyreactivity”.

Consider “QVQLVESGGGLDQAGGSLRLSCDASGSSFRKYAMVLYRQAPGKEREFVAAISSSGGRTYYADSVKGRFTISRDNAKYTVYLQMNSLKPEDTSVYYFADDVYSDRYDYWGQGTQVTVSS”, for which the “polyreactivity (PSR sort gate)” value is given as “high polyreactivity”.

In the case of “QVQLVESGGGLDQAGGSLRLSCPASGNIFTGNAMGWYRQAPGKEREFVAAISSVGGSTYYADSVKGRFTISRDNAKNTVYLQMNSLKPEDTAVYYCAASRVRYSYGYPYYYWGQGTQVTVSS”, the “polyreactivity (PSR sort gate)” value was “high polyreactivity”.

On to “QVQLVESGGGLDQAGGSLRLTCAASGSIFVYNAMGWYRQAPGKEREFVAAITWRGGRTYYADSVKGRFTISRDNAKNTVYLQMNSLKPEDTAVYYCAADGGSTLDYYWGQGTQVTVSS”, for which the “polyreactivity (PSR sort gate)” value is listed as “low polyreactivity”.

In the case of “QVQLVESGGGLDQAGGSLRLTCAASGSTFRVYAKGSYSQAPRKERELGAAISRSGGSTTDYADSVKGRFTISRENAKNTVYLQINSLNPEDTAVYFCSDRDYKVQKIYDYWGLGTQVTVSS”, the “polyreactivity (PSR sort gate)” value is on record as “low polyreactivity”.

For the sequence “QVQLVESGGGLDQAGGSLSLSCAASGYTYRLYAMGWYRQAPGKERELVAAITWRGGSTYYADSVKGRFTISRDNAKNTVYLQMNSLKPEDTAVYYCAAEFYIGRQGNYWGLGTQVTVSS”, the “polyreactivity (PSR sort gate)” value is reported as “high polyreactivity”.

Turning to “QVQLVESGGGLDQAGVRLRLSCAASGRIVSSYAMGWYRQAPGKERELVAAIRRGGGSTSYADSVKGRFTISRDNAKKTVYLQMNSLKPEDTAVYYCAADSPRGQVHYIGGYWGQGTQVTVSS”, the “polyreactivity (PSR sort gate)” value is “low polyreactivity”.

With “QVQLVESGGGLDQAGVSLRLSCAASGNIFSWNTMGWYRPAPGKERELVAAITFRGTRTFYADSVKGRFTISRDNAKNNVYLHMNSLKPEDTAVYYSAARYYYSYSLGYDYWGQGTQVTLSS”, the “polyreactivity (PSR sort gate)” value is listed as “high polyreactivity”.

For “QVQLVESGGGLDQARGSLRLSCAASGFIFQIYAMGWYRQAPGKERELVAAITSRAGSTYYADSVKGRFTISRDNAKNTVYFQMNSLKPEDTAVYFCNKVFFLPTSRAYEYWGQGTQVTVSS”, the “polyreactivity (PSR sort gate)” value is “high polyreactivity”.

Take “QVQLVESGGGLDQARGSLRLSCAASGSIFGENAMGWYRQAPGKERELVAAISTSGGTTYYADSVKGRFTISRDNAKNTVYLQMNSLKPEDTAVYYCAKPYTSFSPYDYWGQGTQVTVSS”: the “polyreactivity (PSR sort gate)” value is “low polyreactivity”.

For “QVQLVESGGGLDQARGSLRLSCAASGSITTFYAMGWSRQAHGKERELVAAISSSGGSTYYADSVKGRFTISRDNAKNTVYLQMNSLKPEDTAVYSCAAKGYPSRYSYGWYNYWGQGTQVTLSS”, the “polyreactivity (PSR sort gate)” value was “high polyreactivity”.

With “QVQLVESGGGLDQARGSLRLSCAASGSTFKSYVMGWYRQAPGKVRELVAAISQSGGNTNYADSVKGRFTISRDNAKNTVYLQMNSLKPEDTAVDYCAADVLGTTTTVGGFNYWGQGTQVTVSS”, the “polyreactivity (PSR sort gate)” value is given as “low polyreactivity”.

For the sequence “QVQLVESGGGLDQAVGSLRLSCAASGSIFKPYAMGWYRQAPGKERELVAGITAGGGSTYYADSVKGRFTISRDNAKNTVYLQMNSLKPEDTAVYYCSVDPYNIFTDDIVENDYWGQGTQVTVSS”, the “polyreactivity (PSR sort gate)” value is “low polyreactivity”.

For the sequence “QVQLVESGGGLDQEGGSLRLSSAASGRTFRGYAMGWYIQAPGKEREIVDAISRGTVGTYYADSVKGRFTISRDNAKNTVYLQMISLKPEDTAVYYCAADRFANFSNLRLGYYSWGQGTQLTVSS”, the “polyreactivity (PSR sort gate)” value is “low polyreactivity”.

In the case of “QVQLVESGGGLEQAGGSLRLSCAASGRTLPIYAMGWYIQAPGKERELVAAISWSGASTYADSVKGRFTISRDNAKNTVYLQMTSLKPEETAVYYCAAYYVYWYSSYGYGYWGQGTQVTVSS”, the “polyreactivity (PSR sort gate)” value is “low polyreactivity”.

For the sequence “QVQLVESGGGLFHAGGSLRLSCAASGSTFTDDDMGWYRQAPGKERELVAAMSWSGGSTYYADSVKGRFTISRDNAKNTVYLQMNSLKPDDTADYYCAFRYHGYDYWGQGTQVTVSS”, the “polyreactivity (PSR sort gate)” value is listed as “high polyreactivity”.

Consider “QVQLVESGGGLFKAGGSLRLSCAASGSTLPGYAMGWYRQAPGKERELVAAITGSGGRTYYADSVKGRFTISRDNAKYTVYLQMNSLKPEDTAVYYCGRGQRVYRSQGDYWGQGSQVTVSS”, for which the “polyreactivity (PSR sort gate)” value is given as “high polyreactivity”.

For “QVQLVESGGGLFQAGGNLRLSCAASGRTFYPNAMGWYRQAPGKERELVAGIRSSGDSTYYADSVKVRFTISRDNAKNTVYFQMNSLKPEDTAVYYCNRDLTPSYDYWGQGSQVTVSS”, the “polyreactivity (PSR sort gate)” value was “low polyreactivity”.

Take “QVQLVESGGGLFQAGGRLRLSCAASGITFVYYAMGWSRQAPGKERELVAAISWGGGSTYYADSVKGRFTISSDNAKNTVYLQMNSLKPEDTAVYYCAADAYVNATPEVSAMGYWGQGTQVTVSS”: the “polyreactivity (PSR sort gate)” value was “low polyreactivity”.

In the case of “QVQLVESGGGLFQAGGSHRLSCAASGSTFTPYAMGWYRQAPGKEREFVARISWTGGSTYYADSVKGRFTISRDNAKNTVYLQMNSLKPEDTAVYYCAARYGYSYYRRDYWGQGTQVTVSS”, the “polyreactivity (PSR sort gate)” value is “high polyreactivity”.

For the sequence “QVQLVESGGGLFQAGGSILLSCPASGSTFDNYSMGWYRQAPGKERELVAGISWSGGSTFYADSVKGRFTISRDNAKYTVYLQMNSLKTEDTAVYYCAARIRYLDVRDNDNYYWGQGTQVTVSS”, the “polyreactivity (PSR sort gate)” value is “low polyreactivity”.

Turning to “QVQLVESGGGLFQAGGSLRISCAASGLTFKINAMGWYRQAPGKERELVAAISSGTSTNYADSVKGRFTISRDNAKNTVYLQMNSLKPEDTAVYYCAARGFWGVAYRYYYWGQGTQVTVSS”, the “polyreactivity (PSR sort gate)” value is given as “high polyreactivity”.

Take “QVQLVESGGGLFQAGGSLRISCAASGSTFLVNAMGWYRQAPGKEREFVAAITWTGGSTYYADSVKGRFTISRDNAKNSVYLQMNRLKPEDTAVYYCNTDWTYYGDQYRRGGYWGQGTQVTVSS”: the “polyreactivity (PSR sort gate)” value was “low polyreactivity”.

As for “QVQLVESGGGLFQAGGSLRISCAASGTFVTYMGWYRQAPGKERELVAAIRNGGSTNYADSVKGRFTISRDNAKNTVYLQMNSLKPDDTAVYYCAARVTYSRGYRGGSRNKYDYWGQGTQVTLSS”, the “polyreactivity (PSR sort gate)” value is reported as “low polyreactivity”.

As for “QVQLVESGGGLFQAGGSLRITCAASGITFSYNAMGWYRQAPGKVRELVAGITWSGGSTYYADSVTGRFTISRDNAKNTVYLQMYSVKREDTAVYYCAASRSFPGYGLYYYWGQGTQVTVSS”, the “polyreactivity (PSR sort gate)” value is “low polyreactivity”.
